This note sets out measurements from patent US20240327505A1 (published 2024).

Assay [1] has as its target T1, SARS-CoV-2 Spike (S) trimer (SARS-CoV-2, UniProt P0DTC2 16-1213).
Assay [2] has as its target T1, SARS-CoV-2 Spike (S) trimer. Put plainly: ELISA, S trimer coated, antibody at 1:50 dilution.
Assay [3] has as its target SARS-CoV-2 spike S2 protein (SARS-CoV-2, UniProt P0DTC2 686-1213).
The target of assay [4] is SARS-CoV-2 Spike (S) trimer (SARS-CoV-2, UniProt P0DTC2 16-1213). Put plainly: ELISA, S trimer coated, antibody at 1:50 dilution. This is another data set of the same source. In general terms: In an ELISA, binding on a coated surface is turned into a signal by an enzyme label.

Residue numbers refer to the chain shown, from its start.

B1: AB-010020 (antibody, V domains shown)
VH: QMQLVQSGPEVKKPGTSVKVSCKASGFTFTSSAVQWVRQARGQRLEWIGWIVVGSGNTNYAQKFQERVTITRDMSTSTAYMELSSLRSEDTAVYYCAAPACSSTSCYDGFDIWGQGTMVTVSS
VL: not shown
For the molecule B1, the response in assay [1] was half-maximal at 0.15 nM (EC50).

B2: AB-010021 (antibody, V domains shown)
VH: B1 VH with P99V, A100Y, S103G, T104G, Y107L, G109A
VL: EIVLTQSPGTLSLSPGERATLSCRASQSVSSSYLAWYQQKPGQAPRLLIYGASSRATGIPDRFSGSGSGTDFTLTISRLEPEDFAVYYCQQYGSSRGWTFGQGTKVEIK
For the molecule B2, in assay [1], the EC50 (usually the concentration at which the effect is half-maximal) turned out to be 0.23 nM.

B3: AB-009613 (antibody, V domains shown)
VH: EVQLVESGGGLIQPGGSLRLSCAASGFTVSSNYMSWVRQAPGKGLEWVSVIYSGGSTYYADSVKGRFTISRDNSKNTLYLQMNSLRAEDTAVYYCARDYGDFYFDYWGQGTLVTVSS
VL: not shown
As to B3, the “Optical Density (OD; 450 nm)” value in assay [2] turned out to be 2.47 OD 450 nm.

B4: AB-009358 (antibody, V domains shown)
VH: QVHLVQSGAEVKKPGASVKISCKASGYTFTSYYVHWVRQAPGQGLEWMGIIKPSGAGTIYAQKFQGRVTMTRDTSTSTVYMELSSLISEDTAVYYCARGGGVTDRDYWGQGTLVTVSS
VL: QSALTQEASVSATVGQKVTLSCTGNTNNIGGYAVGWHQQISHGAPKTVMFGNSLPSGIPDRFSGSKSGTTASLIISGLQPEDEADYYCSTWDSSLGAVLFGGGTKLTVL
Consider B4, for which, in assay [3], the Kd (usually the free concentration of one partner at which half of the binding sites on the other are occupied at equilibrium, for simple one-to-one binding) is 478 nM; the koff (usually a measure of how fast the partners let go of each other) is 0.00176 s⁻¹; the on-rate constant (kon) – broadly, a measure of how fast the partners come together – was 3690 M⁻¹ s⁻¹.

B5: AB-009610 (antibody, V domains shown)
VH: QVQLVQSGAEVKKPGSSVKVSCKASGGTFSNYAISWVRQAPGQGLEWMGRIIPILGIANYAQKFQGRVTITADKSTSTAYMELSSLRSEDTAVYYCATTPYYYDSSGYYLDYWGQGTLVTVSS
VL: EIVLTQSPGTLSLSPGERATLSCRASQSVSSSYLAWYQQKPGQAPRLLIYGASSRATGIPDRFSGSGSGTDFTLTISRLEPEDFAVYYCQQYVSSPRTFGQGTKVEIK
B5: the “Optical Density (OD; 450 nm)” value in assay [2] was 2.02 OD 450 nm.

B6: AB-009629 (antibody, V domains shown)
VH: QVQLQQWGAGLLKPSETLSLTCAVYGGSFSGYYWSWIRQPPGKGLEWIGEINHSGSTNYNPSLKSRVTISVDTSKNQFSLKLSSVTAADTAVYFCARGTGIAVAGVLVNFYYCYYMDVWGKGTTVTVSS
VL: SSELTQDPAVSVALGQTVRITCQGDSLRSYYASWYQQKPGQAPVLVIYGKNNRPSGIPDRFSGSSSGNTASLTITGAQAEDEADYYCNSRDSSGNHLVFGGGTKLTVL
Consider B6, for which, in assay [4], the “Optical Density (OD; 450 nm)” value was determined as 0.114 OD 450 nm.
